For this assay, the target named is SARS-CoV-2 spike receptor-binding domain (RBD), Wuhan-Hu-1, His-tagged (SARS-CoV-2 (Wuhan-Hu-1), UniProt P0DTC2 319-541). Kind of assay: BLI. A general note: BLI is a label-free optical method that tracks binding on a fibre tip over time.

B1: NCI-CoV-1B5 VHH-hFc fusion protein (Fc fusion)
chain: DVQLVESGGGSVQAGGSLRLSCTGSRYTYSTYCMGWFRQAPGKEEEAVAIINSGGGEPYYGDSVKGRFTISQDRAKNTVYLQMDGLQPDDTAIYYCVAADSHNSRCYLGRSYVNYWGQGTQVTVSS
As usually defined, the Kd is a measure of binding affinity in units of concentration. A higher Kd goes with weaker binding. With B1, the Kd turned out to be 0.1 nM.

The values above are taken from article PMC9170159 (2022).
